Measurements from paper PMC3829318.

B1: KORRIGAN1 (KOR1): N345Q (protein)
parent chain: MYGRDPWGGPLEINTADSATDDDRSRNLNDLDRAALSRPLDETQQSWLLGPTEQKKKKYVDLGCIIVSRKIFVWTVGTLVAAALLAGFITLIVKTVPRHHPKTPPPDNYTIALHKALKFFNAQKSGKLPKHNNVSWRGNSGLQDGKGETGSFYKDLVGGYYDAGDAIKFNFPMAYAMTMLSWSVIEYSAKYEAAGELTHVKELIKWGTDYFLKTFNSTADSIDDLVSQVGSGNTDDGNTDPNDHYCWMRPEDMDYKRPVTTCNGGCSDLAAEMAAALASASIVFKDNKEYSKKLVHGAKVVYQFGRTRRGRYSAGTAESSKFYNSSMYWDEFIWGGAWMYYATGNVTYLNLITQPTMAKHAGAFWGGPYYGVFSWDNKLAGAQLLLSRLRLFLSPGYPYEEILRTFHNQTSIVMCSYLPIFNKFNRTNGGLIELNHGAPQPLQYSVNAAFLATLYSDYLDAADTPGWYCGPNFYSTSVLRDFARSQIDYILGKNPRKMSYVVGFGTKYPRHVHHRGASIPKNKVKYNCKGGWKWRDSKKPNPNTIEGAMVAGPDKRDGYRDVRMNYNYTEPTLAGNAGLVAALVALSGEEEATGKIDKNTIFSAVPPLFPTPPPPPAPWKP
B2: KORRIGAN1 (KOR1): PNGase F (protein)
parent chain: B1 parent chain
B3: KORRIGAN1 (KOR1): N567Q (protein)
parent chain: B1 parent chain
B4: KORRIGAN1 (KOR1): N345Q + Endo H (protein)
parent chain: B1 parent chain
B5: KORRIGAN1 (KOR1): N425Q (protein)
parent chain: B1 parent chain
B6: KORRIGAN1 (KOR1): N216Q + Endo H (protein)
parent chain: B1 parent chain
B7: KORRIGAN1 (KOR1): kifunensine (rKOR1 KIF) (protein)
parent chain: B1 parent chain
B8: KORRIGAN1 (KOR1): N324Q (protein)
parent chain: B1 parent chain
B9: KORRIGAN1 (KOR1): kifunensine (rKOR1 KIF) + Endo H (protein)
parent chain: B1 parent chain
B10: KORRIGAN1 (KOR1): N425Q + Endo H (protein)
parent chain: B1 parent chain
B11: KORRIGAN1 (KOR1): Endo H (protein)
parent chain: B1 parent chain
B12: KORRIGAN1 (KOR1): N324Q/N345Q (protein)
parent chain: B1 parent chain
B13: KORRIGAN1 (KOR1): N216Q (protein)
parent chain: B1 parent chain
B14: KORRIGAN1 (KOR1): N408Q (protein)
parent chain: B1 parent chain
B15: KORRIGAN1 (KOR1): N408Q + Endo H (protein)
parent chain: B1 parent chain
B16: KORRIGAN1 (KOR1): N216Q/N324Q/N345Q (protein)
parent chain: B1 parent chain
B17: KORRIGAN1 (KOR1): N324Q + Endo H (protein)
parent chain: B1 parent chain

Key:
[1] = Golgi processing of remaining glycopeptides, LC-ESI-MS, N. benthamiana; details: glycan lost; control: wild-type KOR1-Fc-GFP
[2] = activity after preincubation at 30 °C; details: glycan lost; control: rKOR1 WT
[3] = (carboxymethyl)cellulose 4M hydrolysis, reducing sugar assay; details: control: rKOR1 WT
[4] = anti-KOR1 immunoblot of Sf21 culture medium; details: control: rKOR1 WT
[5] = CMC hydrolysis after non-denaturing deglycosylation; details: glycan lost; control: untreated rKOR1 WT
[6] = CMC hydrolysis after non-denaturing Endo H
[7] = transient expression in N. benthamiana leaves; details: glycan lost; control: wild-type KOR1-Fc-GFP
[8] = glycan lost, control: Endo H-digested rKOR1 WT

Protein	localisation_or_trafficking [1]	stability_or_folding, other: residual activity after 120 min [2]	expression_or_secretion ([4]; glycan lost)	also measured
B1	no change	no change, at least 90 vs at least 90	no change	enzymatic_activity, other: specific activity ([3]; glycan lost): decreases, 271 ± 25 vs 374 ± 18
B2				enzymatic_activity, percent_of_wt [5]: decreases, ∼50 vs 100
B3	no change	no change, at least 90 vs at least 90	decreases	
B4				enzymatic_activity [6, 8]: no change
B5	no change	decreases, 69 vs at least 90	no change	enzymatic_activity, other: specific activity ([3]; glycan lost): no change, 394 ± 34 vs 374 ± 18
B6				enzymatic_activity [6, 8]: no change
B7				enzymatic_activity, other: specific activity ([3]; glycan changed form): no change, 402 ± 40 vs 374 ± 18; expression_or_secretion ([4]; glycan changed form): no change
B8	no change	no change, at least 90 vs at least 90	no change	enzymatic_activity, other: specific activity ([3]; glycan lost): decreases, 307 ± 8 vs 374 ± 18
B9				enzymatic_activity ([6]; glycan changed form, control: Endo H-treated rKOR1 WT): decreases
B10				enzymatic_activity [6, 8]: no change
B11				enzymatic_activity, percent_of_wt [5]: decreases, loss of 20–30% vs 100
B12	no change		decreases	expression_or_secretion [7]: no change
B13	no change	no change, at least 90 vs at least 90	no change	enzymatic_activity, other: specific activity ([3]; glycan lost): decreases, 244 ± 25 vs 374 ± 18
B14	no change	no change, at least 90 vs at least 90	no change	enzymatic_activity, other: specific activity ([3]; glycan lost): no change, 379 ± 18 vs 374 ± 18
B15				enzymatic_activity [6, 8]: no change
B16	no change			
B17				enzymatic_activity [6, 8]: no change
